What was measured:
[1] = biological target: recombinant Plasmodium vivax Apical Membrane Antigen 1, PvAMA1-His6 (Plasmodium vivax) (UniProt Q9TY14); test: SPR; Biacore T200; PvAMA1-His6 amine-coupled on a CM5 chip; peptides injected at 50 µL/min, 25 °C, PBS; steady-state model, apparent KD
[2] = biological target: recombinant Plasmodium vivax Apical Membrane Antigen 1, PvAMA1-His6 (Plasmodium vivax) (UniProt Q9TY14); test: ITC; MicroCal VP-ITC; 9.43 µmol/L PvAMA1-His6 in the cell titrated with 300 µmol/L peptide (10 µL injections), 25 °C, PBS; one-site model

Substance: cyclic PvRON2 (2035-2074) peptide
- Kd [1]: 23.9 µM
- Ka [2]: 300000 M⁻¹
- dH [2]: -36 kcal/mol
- stoichiometry N (peptide/protein) [2]: 0.6

— PMC6347818
